Data reported in the supplement of paper PMC10724198.
± gives the standard deviation of the averaged measurements.

System: Saccharomyces cerevisiae
Test: protein stability index of tFT-peptide fusion (C-terminal peptide) (PSI (0-1 scale)); higher = more stable (slower turnover)
Details: temperature: 30 C
Method: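 MPS profiling in S. cerevisiae of the yeast C-terminome library: the last 12 aa of each annotated ORF are fused to the C-terminus of a sfGFP-mCherry timer, after a GGGS linker. Cells are FACS-sorted into 8 mCherry/sfGFP bins and deep-sequenced. PSI runs from 0 (unstable) to 1 (stable); wild type and das1Δ backgrounds, two technical replicates each.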

[1] = genetic background: das1 deletion

Row | Sequence | protein stability index [1] | protein stability index (genetic background: wild type)
1 | QLLNDSPLEDKF [FBP26 C-terminal 12 aa] | 0.711 ± 0.026 | 0.7 ± 0.026
2 | QLMYEQDDEEVP [HAP3 C-terminal 12 aa] | 0.718 ± 0.015 | 0.64582 ± 0.00022
3 | QNARAAFKSTLV [YDR514C C-terminal 12 aa] | 0.707 ± 0.012 | 0.698 ± 0.044
4 | QPSSASCLFILI [AHT1 C-terminal 12 aa] | 0.716 ± 0.023 | 0.696 ± 0.055
5 | QQFYKDVYAMQD [THI2 C-terminal 12 aa] | 0.74 ± 0.018 | 0.6413 ± 0.001
6 | QSLPPTLKVNRL [RPL38 C-terminal 12 aa] | 0.672 ± 0.012 | 0.65859 ± 0.00042
7 | QTAISMNDEDDA [GVP36 C-terminal 12 aa] | 0.712 ± 0.013 | 0.7006 ± 0.0018
8 | QTLDSEYNTILQ [GAT2 C-terminal 12 aa] | 0.704 ± 0.024 | 0.742 ± 0.073
9 | QTSGTFLHFSRP [YEL075W-A C-terminal 12 aa] | 0.712 ± 0.01 | 0.718 ± 0.062
10 | QTSKGPENLQFS [RAD53 C-terminal 12 aa] | 0.71 ± 0.05 | 0.723 ± 0.018
11 | QVNKPGPLTVPF [MEH1 C-terminal 12 aa] | 0.702 ± 0.015 | 0.716 ± 0.018
12 | QWMNEMVERWAN [SOH1 C-terminal 12 aa] | 0.707 ± 0.0074 | 0.7 ± 0.0099
13 | RAKTMNRSQSHV [PFK26 C-terminal 12 aa] | 0.697 ± 0.0089 | 0.7255 ± 0.0013
14 | RAYCVGFKWVRF [MCH5 C-terminal 12 aa] | 0.675 ± 0.02 | 0.145 ± 0.028
15 | RDWSSFSKDYEI [PMS1 C-terminal 12 aa] | 0.7561 ± 0.0022 | 0.699 ± 0.0094
16 | RGRIAAQKRIAA [RPL17A C-terminal 12 aa] | 0.667 ± 0.0084 | 0.604 ± 0.045
17 | RKFFKRMTNFWC [TAT1 C-terminal 12 aa] | 0.7409 ± 0.0066 | 0.436 ± 0.025
18 | RKRFSYTQTKNK [RSM19 C-terminal 12 aa] | 0.678 ± 0.013 | 0.66787 ± 0.00059
19 | RKSKRVLPVSKF [PET309 C-terminal 12 aa] | 0.783 ± 0.0088 | 0.794 ± 0.087
20 | RLIFYPDEYEQL [PRE3 C-terminal 12 aa] | 0.743 ± 0.012 | 0.736 ± 0.071
21 | RLKPRQIVPKRS [SLI15 C-terminal 12 aa] | 0.7194 ± 0.0028 | 0.724 ± 0.054

Row | Sequence | protein stability index [1] | protein stability index (genetic background: wild type)
22 | RLKSQNVVTYYK [NIP100 C-terminal 12 aa] | 0.707 ± 0.032 | 0.692 ± 0.015
23 | RLSRWFNETENI [MEI4 C-terminal 12 aa] | 0.756 ± 0.043 | 0.727 ± 0.096
24 | RMLMGTTKRGRF [YAL037W C-terminal 12 aa] | 0.704 ± 0.02 | 0.6898 ± 0.0036
25 | RNVDKLDVFSNS [MRM2 C-terminal 12 aa] | 0.716 ± 0.019 | 0.727 ± 0.037
26 | RPQYRRIAALEE [PSY3 C-terminal 12 aa] | 0.695 ± 0.023 | 0.672 ± 0.015
27 | RQEEIKKRTALV [DPC25 C-terminal 12 aa] | 0.705 ± 0.0089 | 0.619 ± 0.022
28 | RRFDVYSDVNAH [NIT3 C-terminal 12 aa] | 0.71 ± 0.0033 | 0.677 ± 0.044
29 | RSFVTRFLHFWC [HIP1 C-terminal 12 aa] | 0.777 ± 0.024 | 0.716 ± 0.046
30 | RSIRWFREAGGK [SKI8 C-terminal 12 aa] | 0.695 ± 0.018 | 0.7202 ± 0.0028
31 | RSKYGAKKPSKS [MRPS12 C-terminal 12 aa] | 0.6815 ± 0.0025 | 0.6855 ± 0.0067
32 | RSNAERKRRSPL [PBP2 C-terminal 12 aa] | 0.7121 ± 0.0039 | 0.68 ± 0.021
33 | RSTNGRPQRGYR [YLR326W C-terminal 12 aa] | 0.675 ± 0.027 | 0.664 ± 0.0025
34 | RSWDEFIGFKAY [CPA2 C-terminal 12 aa] | 0.745 ± 0.03 | 0.615 ± 0.041
35 | RTAAESIANDRK [FRD1 C-terminal 12 aa] | 0.674 ± 0.0068 | 0.708 ± 0.05
36 | RTLGYSNNNGNN [UBX6 C-terminal 12 aa] | 0.679 ± 0.019 | 0.678 ± 0.0087
37 | RTNHIYNYENSD [DFG16 C-terminal 12 aa] | 0.703 ± 0.0077 | 0.672 ± 0.011
38 | RVRTLARKHLSK [TRS20 C-terminal 12 aa] | 0.692 ± 0.02 | 0.686 ± 0.018
39 | SAEGSDVLYMQK [LSM7 C-terminal 12 aa] | 0.671 ± 0.0093 | 0.6739 ± 0.0053
40 | SAENEESKEKCE [LAG1 C-terminal 12 aa] | 0.696 ± 0.051 | 0.658 ± 0.021
41 | SAIGSDIVNSIF [LSB1 C-terminal 12 aa] | 0.7044 ± 0.0053 | 0.676 ± 0.024
42 | SAQRDRRYRKRV [RPS17A C-terminal 12 aa] | 0.6665 ± 0.0025 | 0.69 ± 0.067

Row | Sequence | protein stability index [1] | protein stability index (genetic background: wild type)
43 | SCGCGSSFDIEN [ISA2 C-terminal 12 aa] | 0.704 ± 0.015 | 0.632 ± 0.0093
44 | SDDDVSSESEEE [BDF1 C-terminal 12 aa] | 0.6997 ± 0.0067 | 0.658 ± 0.015
45 | SDGFANNRCQRK [YOR034C-A C-terminal 12 aa] | 0.658 ± 0.0075 | 0.718 ± 0.051
46 | SDVISEESYNEA [SVF1 C-terminal 12 aa] | 0.7069 ± 0.0026 | 0.694 ± 0.0074
47 | SELQQIFPVSQQ [SPS100 C-terminal 12 aa] | 0.706 ± 0.011 | 0.689 ± 0.033
48 | SEPTNDDLDATK [MRX10 C-terminal 12 aa] | 0.678 ± 0.033 | 0.675 ± 0.019
49 | SESNDGESSDSD [RPA43 C-terminal 12 aa] | 0.656 ± 0.021 | 0.7176 ± 0.0024
50 | SFKAYVGLPTTG [PIC2 C-terminal 12 aa] | 0.706 ± 0.01 | 0.693 ± 0.009
51 | SFPVVEPMGGST [BDS1 C-terminal 12 aa] | 0.69 ± 0.012 | 0.727 ± 0.014
52 | SFRPKSSNNPFR [ENT4 C-terminal 12 aa] | 0.734 ± 0.02 | 0.674 ± 0.021
53 | SFRSSHFYSLIA [YLR217W C-terminal 12 aa] | 0.691 ± 0.012 | 0.331 ± 0.016
54 | SFTHQEQDTEMN [NAB2 C-terminal 12 aa] | 0.708 ± 0.032 | 0.736 ± 0.019
55 | SFVTKKKAACYR [YIL025C C-terminal 12 aa] | 0.717 ± 0.011 | 0.706 ± 0.0072
56 | SGIVENDFENRS [YOR1 C-terminal 12 aa] | 0.707 ± 0.013 | 0.705 ± 0.084
57 | SGKLASKKRDKK [MRPL36 C-terminal 12 aa] | 0.684 ± 0.021 | 0.651 ± 0.019
58 | SHHPHKNGKISF [YKR011C C-terminal 12 aa] | 0.719 ± 0.028 | 0.69647 ± 0.00034
59 | SHPIDVNLQFIM [MCA1 C-terminal 12 aa] | 0.735 ± 0.013 | 0.689 ± 0.039
60 | SISHPENKVLHK [YNL195C C-terminal 12 aa] | 0.689 ± 0.0083 | 0.699 ± 0.0077
61 | SIVYSWKENSSS [YGL217C C-terminal 12 aa] | 0.704 ± 0.031 | 0.703 ± 0.015
62 | SKGKNSESGGIF [PPR1 C-terminal 12 aa] | 0.699 ± 0.026 | 0.711 ± 0.054
63 | SKKSKKSKKSEE [MRH1 C-terminal 12 aa] | 0.719 ± 0.0089 | 0.695 ± 0.053

Row | Sequence | protein stability index [1] | protein stability index (genetic background: wild type)
64 | SKNDSPKKKGWF [MAS2 C-terminal 12 aa] | 0.694 ± 0.027 | 0.702 ± 0.018
65 | SLDVGKILDVTI [PSR1 C-terminal 12 aa] | 0.686 ± 0.012 | 0.662 ± 0.038
66 | SLFPSLETEDKK [MIH1 C-terminal 12 aa] | 0.674 ± 0.0077 | 0.671 ± 0.02
67 | SLGSVFTILTDS [YGR228W C-terminal 12 aa] | 0.72 ± 0.0074 | 0.7206 ± 0.0043
68 | SLKDLIMQVTKM [CTO1 C-terminal 12 aa] | 0.753 ± 0.046 | 0.654 ± 0.069
69 | SLLFVGPLFLKV [YCL007C C-terminal 12 aa] | 0.401 ± 0.016 | 0.423 ± 0.012
70 | SLRPQERNLYGL [NTH1 C-terminal 12 aa] | 0.691 ± 0.021 | 0.753 ± 0.095
71 | SLYMNISYILLF [YGR073C C-terminal 12 aa] | 0.44985 ± 0.00042 | 0.2066 ± 0.0013
72 | SMKPFKRRKPFF [PRP16 C-terminal 12 aa] | 0.69 ± 0.0092 | 0.72 ± 0.0089
73 | SNNATHNCGNYF [YGR122W C-terminal 12 aa] | 0.712 ± 0.049 | 0.764 ± 0.01
74 | SNPSSHIKKKGL [RRT6 C-terminal 12 aa] | 0.682 ± 0.014 | 0.6362 ± 0.0061
75 | SNRTLSNETDAL [ACE2 C-terminal 12 aa] | 0.7072 ± 0.0038 | 0.701 ± 0.016
76 | SPGYKAYLREER [YSF3 C-terminal 12 aa] | 0.722 ± 0.012 | 0.685 ± 0.019
77 | SPPLSTSPDSRR [YLR416C C-terminal 12 aa] | 0.7198 ± 0.0012 | 0.713 ± 0.029
78 | SPRLKENEHVTN [MPC54 C-terminal 12 aa] | 0.693 ± 0.013 | 0.724 ± 0.072
79 | SPYLKHLDSRKQ [CTS2 C-terminal 12 aa] | 0.722 ± 0.019 | 0.7 ± 0.045
80 | SQEPQYKLFRGR [MRPL16 C-terminal 12 aa] | 0.6988 ± 0.0014 | 0.731 ± 0.069
81 | SQNELRFEERLL [INO1 C-terminal 12 aa] | 0.683 ± 0.021 | 0.675 ± 0.025
82 | SRIKWHVGTAYS [HHY1 C-terminal 12 aa] | 0.6943 ± 0.0031 | 0.6653 ± 0.0066
